Source: paper PMC9482650, “Quantitative fragmentomics allow affinity mapping of interactomes” (Nature Communications, 2022)

T1: MPDZ_12, O75970
T1 sequence (O75970 1857-1958, limits assumed, looked up): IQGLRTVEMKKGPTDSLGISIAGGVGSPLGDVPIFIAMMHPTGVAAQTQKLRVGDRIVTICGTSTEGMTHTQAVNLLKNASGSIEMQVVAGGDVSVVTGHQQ

T2: PDZD7_3, Q9H5P4
T2 sequence (Q9H5P4 857-944, limits assumed, looked up): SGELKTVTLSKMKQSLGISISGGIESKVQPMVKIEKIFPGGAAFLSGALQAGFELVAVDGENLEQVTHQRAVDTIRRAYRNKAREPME

T3: LNX2_2, Q8N448
T3 sequence (Q8N448 334-432, limits assumed, looked up): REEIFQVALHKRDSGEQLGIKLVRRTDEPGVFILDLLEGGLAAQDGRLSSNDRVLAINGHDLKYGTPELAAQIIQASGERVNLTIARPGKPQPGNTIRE

T4: APBA3_1, O96018
T4 sequence (O96018 389-490, limits assumed, looked up): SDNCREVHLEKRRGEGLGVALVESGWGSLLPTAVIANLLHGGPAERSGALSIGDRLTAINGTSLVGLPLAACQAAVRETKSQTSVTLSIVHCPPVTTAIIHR

T5: PDZRN3_1, Q9UPQ7
T5 sequence (Q9UPQ7 244-349, limits assumed, looked up): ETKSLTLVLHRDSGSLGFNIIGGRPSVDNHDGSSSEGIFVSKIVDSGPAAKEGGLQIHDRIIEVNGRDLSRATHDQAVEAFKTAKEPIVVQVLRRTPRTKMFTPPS

T6: GRIP1_2, Q9Y3R0
T6 sequence (Q9Y3R0 145-248, limits assumed, looked up): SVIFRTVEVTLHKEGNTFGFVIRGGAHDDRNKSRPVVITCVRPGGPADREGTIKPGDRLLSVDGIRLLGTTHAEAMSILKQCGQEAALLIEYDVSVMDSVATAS

T7: LIN7A, O14910
T7 sequence (O14910 103-200, limits assumed, looked up): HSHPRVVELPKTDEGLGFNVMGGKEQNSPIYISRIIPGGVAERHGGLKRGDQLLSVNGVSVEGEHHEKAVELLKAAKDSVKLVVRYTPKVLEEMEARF

T8: DFNB31_1, Q9P202
T8 sequence (Q9P202 135-233, limits assumed, looked up): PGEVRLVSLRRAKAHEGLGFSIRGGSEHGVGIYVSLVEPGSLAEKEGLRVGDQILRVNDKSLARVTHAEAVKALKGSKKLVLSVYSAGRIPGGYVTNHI

T9: HTRA3, P83110
T9 sequence (P83110 354-453, limits assumed, looked up): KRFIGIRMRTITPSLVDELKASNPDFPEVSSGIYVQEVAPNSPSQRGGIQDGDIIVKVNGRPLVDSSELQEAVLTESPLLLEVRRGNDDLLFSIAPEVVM

T10: DVL3, Q92997
T10 sequence (Q92997 244-331, limits assumed, looked up): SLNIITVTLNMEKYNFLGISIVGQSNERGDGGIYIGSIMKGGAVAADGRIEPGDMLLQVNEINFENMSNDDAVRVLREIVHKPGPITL

T11: CARD11, Q9BXL7
T11 sequence (Q9BXL7 662-765, limits assumed, looked up): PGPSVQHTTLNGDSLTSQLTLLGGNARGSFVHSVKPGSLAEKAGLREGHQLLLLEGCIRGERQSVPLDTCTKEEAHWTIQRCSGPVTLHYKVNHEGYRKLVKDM


Tests used:
Assay in all cases: holdup assay
Set-up in all cases: key: below the threshold = too weak to quantify, mostly under pKd 3.1 to 4
Conditions in all cases: plain residues with an end cap or a label only (N-terminal biotin on a linker: ado-ado)
[1] = target: GRIP2_7, Q9C0E4
[2] = target: SCRIB_3, Q14160
[3] = target: MAGI1_1, Q96QZ7
[4] = target: T1, MPDZ_12, O75970
[5] = target: DLG2_2, Q15700
[6] = target: T2, PDZD7_3, Q9H5P4
[7] = target: T3, LNX2_2, Q8N448
[8] = target: MAGI2_5, Q86UL8
[9] = target: TJP2_1, Q9UDY2
[10] = target: T4, APBA3_1, O96018
[11] = target: T5, PDZRN3_1, Q9UPQ7
[12] = target: Inadl_1, Q8NI35
[13] = target: T6, GRIP1_2, Q9Y3R0
[14] = target: T7, LIN7A, O14910
[15] = target: LAP2, Q96RT1
[16] = target: GORASP1, Q9BQQ3
[17] = target: T8, DFNB31_1, Q9P202
[18] = target: GORASP2, Q9H8Y8
[19] = target: T9, HTRA3, P83110
[20] = target: GRIP2_6, Q9C0E4
[21] = target: T10, DVL3, Q92997
[22] = target: Inadl_9, Q8NI35
[23] = target: T11, CARD11, Q9BXL7
[24] = target: GRIP2_3, Q9C0E4
[25] = target: Inadl_4, Q8NI35
[26] = target: NHERF4_4, Q86UT5
[27] = target: MAGI2_6, Q86UL8
Chain of MAGI2_6, Q86UL8 (Q86UL8 1141-1229): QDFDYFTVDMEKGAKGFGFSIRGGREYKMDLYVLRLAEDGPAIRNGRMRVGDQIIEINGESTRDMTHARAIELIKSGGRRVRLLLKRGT

Chain of Inadl_4, Q8NI35 (Q8NI35 547-651): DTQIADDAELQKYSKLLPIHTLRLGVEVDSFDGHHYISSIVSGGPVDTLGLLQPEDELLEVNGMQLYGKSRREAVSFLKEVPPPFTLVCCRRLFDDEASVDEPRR
Chain of Inadl_9, Q8NI35 (Q8NI35 1530-1615): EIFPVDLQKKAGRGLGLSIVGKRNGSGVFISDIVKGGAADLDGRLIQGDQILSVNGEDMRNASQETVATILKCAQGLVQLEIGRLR
Chain of GORASP1, Q9BQQ3 (Q9BQQ3 1-208): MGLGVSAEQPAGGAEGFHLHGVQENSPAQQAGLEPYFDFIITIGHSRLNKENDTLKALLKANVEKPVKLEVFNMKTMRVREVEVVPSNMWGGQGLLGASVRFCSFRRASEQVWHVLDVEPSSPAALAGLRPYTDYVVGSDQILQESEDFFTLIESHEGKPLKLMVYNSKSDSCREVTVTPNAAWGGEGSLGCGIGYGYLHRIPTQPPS
Chain of GRIP2_7, Q9C0E4 (Q9C0E4 934-1023): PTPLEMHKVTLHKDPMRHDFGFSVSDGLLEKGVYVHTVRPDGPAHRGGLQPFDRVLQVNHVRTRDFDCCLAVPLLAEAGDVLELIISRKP
Chain of TJP2_1, Q9UDY2 (Q9UDY2 24-128): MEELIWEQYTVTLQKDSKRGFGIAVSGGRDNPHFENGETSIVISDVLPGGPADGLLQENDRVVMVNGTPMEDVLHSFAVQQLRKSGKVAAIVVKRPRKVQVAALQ
Chain of DLG2_2, Q15700 (Q15700 189-283): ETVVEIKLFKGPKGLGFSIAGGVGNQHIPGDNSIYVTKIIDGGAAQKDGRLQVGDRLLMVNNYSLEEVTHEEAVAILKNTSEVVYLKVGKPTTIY
Chain of NHERF4_4, Q86UT5 (Q86UT5 464-550): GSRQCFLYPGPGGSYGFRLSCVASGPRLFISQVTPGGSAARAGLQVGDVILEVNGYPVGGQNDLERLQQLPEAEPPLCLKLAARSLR
Chain of LAP2, Q96RT1 (Q96RT1 other isoform, or with tags, fused parts or gaps): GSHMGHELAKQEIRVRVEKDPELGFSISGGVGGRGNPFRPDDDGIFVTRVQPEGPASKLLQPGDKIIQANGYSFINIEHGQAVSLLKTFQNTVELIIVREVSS
Chain of Inadl_1, Q8NI35 (Q8NI35 113-229): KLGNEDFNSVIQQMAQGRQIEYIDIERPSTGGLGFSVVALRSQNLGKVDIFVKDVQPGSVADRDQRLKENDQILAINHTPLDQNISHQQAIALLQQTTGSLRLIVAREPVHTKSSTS
Chain of MAGI2_5, Q86UL8 (Q86UL8 915-1017): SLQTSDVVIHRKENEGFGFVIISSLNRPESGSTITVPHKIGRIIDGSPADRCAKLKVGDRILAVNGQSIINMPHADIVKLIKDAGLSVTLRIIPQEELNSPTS
Chain of SCRIB_3, Q14160 (Q14160 999-1103): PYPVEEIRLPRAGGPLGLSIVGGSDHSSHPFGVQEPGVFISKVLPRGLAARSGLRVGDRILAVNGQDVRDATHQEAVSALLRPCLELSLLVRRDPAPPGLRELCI
Chain of GRIP2_6, Q9C0E4 (Q9C0E4 648-740): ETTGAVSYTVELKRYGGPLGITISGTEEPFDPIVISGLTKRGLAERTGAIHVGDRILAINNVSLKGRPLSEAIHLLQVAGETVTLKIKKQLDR
Chain of MAGI1_1, Q96QZ7 (Q96QZ7 1-106): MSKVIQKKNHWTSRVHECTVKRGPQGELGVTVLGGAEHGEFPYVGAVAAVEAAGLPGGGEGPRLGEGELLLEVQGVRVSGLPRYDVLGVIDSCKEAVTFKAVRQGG
Chain of GRIP2_3, Q9C0E4 (Q9C0E4 238-339): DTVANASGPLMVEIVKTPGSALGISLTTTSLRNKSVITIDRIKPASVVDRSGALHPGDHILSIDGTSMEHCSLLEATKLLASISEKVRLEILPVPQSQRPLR

Binder | pKd [1] | pKd [2] | pKd [3] | pKd [4] | pKd [5] | pKd [6] | pKd [7] | pKd [8] | pKd [9] | pKd [10] | pKd [11] | pKd [12] | pKd [13] | pKd [14] | pKd [15] | pKd [16] | pKd [17] | pKd [18] | pKd [19] | pKd [20] | other results
VRPGVKESLV [SCN4A, P35499] | below the threshold | 4.34 | below the threshold | below the threshold | 5.23 | 5.05 | 3.91 | 5.03 | below the threshold | below the threshold | 4.38 | below the threshold | below the threshold | 3.94 | 3.99 | below the threshold | 3.73 | below the threshold | below the threshold | below the threshold | pKd [21]: below the threshold; pKd [22]: 3.71; pKd [23]: below the threshold; pKd [24]: below the threshold; pKd [25]: below the threshold; pKd [26]: 3.96; pKd [27]: 3.93
TGPWKNETTV [ADGRA1, Q86SQ6] | below the threshold | 4.69 | below the threshold | below the threshold | 5.1 | 4.9 | 4.93 | 4.02 | below the threshold | below the threshold | 4.07 | below the threshold | below the threshold | 3.86 | 3.84 | below the threshold | 3.73 | 3.57 | below the threshold | below the threshold | pKd [21]: below the threshold; pKd [22]: below the threshold; pKd [23]: below the threshold; pKd [24]: below the threshold; pKd [25]: below the threshold; pKd [26]: 3.9; pKd [27]: 3.71
RRLQGTSSMV [GOLT1A, Q6ZVE7] | below the threshold | below the threshold | below the threshold | below the threshold | 4.39 | below the threshold | 3.78 | 4 | 3.59 | below the threshold | below the threshold | below the threshold | below the threshold | below the threshold | below the threshold | 3.67 | below the threshold | 4.17 | 3.64 | below the threshold | pKd [21]: below the threshold; pKd [22]: below the threshold; pKd [23]: below the threshold; pKd [24]: below the threshold; pKd [25]: below the threshold; pKd [26]: below the threshold; pKd [27]: 3.68
RDFDYIADWC [PKN2, Q16513] | below the threshold | 3.49 | below the threshold | 4.2 | below the threshold | below the threshold | 4.59 | 3.95 | 4.48 | below the threshold | below the threshold | below the threshold | 3.7 | below the threshold | 4.01 | below the threshold | 3.69 | 3.87 | 5.86 | below the threshold | pKd [21]: below the threshold; pKd [22]: 4.34; pKd [23]: below the threshold; pKd [24]: below the threshold; pKd [25]: below the threshold; pKd [26]: below the threshold; pKd [27]: 3.77
